What was measured:
[1] = target: VSV8/Kb complex (vesicular stomatitis virus; mouse) (UniProt P01887); assay: cell-based or functional assay
[2] = target: activated thymic caspase (~17 kD subunit) of VSV8-triggered N15 TCRtg RAG-2-/- H-2b mouse thymocytes (mouse); assay: cell-based or functional assay
[3] = target: activated thymic caspase (~17 kD subunit) of VSV8-triggered N15 TCRtg RAG-2-/- H-2b mouse thymocytes (mouse); assay: preincubation with zVADfmk, competitor biotin-DEVDamk, thymic lysate, streptavidin-HRP blot
[4] = target: mouse CD3ε (mouse) (UniProt P22646); assay: cell-based or functional assay

VSV8/Kb complex (vesicular stomatitis virus; mouse), sequence (P01901 22-369 limits assumed, chain 2 of 2): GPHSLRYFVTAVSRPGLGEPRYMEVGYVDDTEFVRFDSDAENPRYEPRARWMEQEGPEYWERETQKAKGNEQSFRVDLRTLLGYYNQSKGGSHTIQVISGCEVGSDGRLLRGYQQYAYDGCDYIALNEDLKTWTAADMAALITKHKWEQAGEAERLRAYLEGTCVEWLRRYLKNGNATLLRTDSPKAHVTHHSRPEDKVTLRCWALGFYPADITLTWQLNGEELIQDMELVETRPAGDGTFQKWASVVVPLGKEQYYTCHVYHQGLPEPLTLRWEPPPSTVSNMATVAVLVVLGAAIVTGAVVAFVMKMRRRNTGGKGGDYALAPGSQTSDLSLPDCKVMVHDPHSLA
VSV8/Kb complex (vesicular stomatitis virus; mouse), sequence (P01887 21-119 limits assumed, chain 3 of 2): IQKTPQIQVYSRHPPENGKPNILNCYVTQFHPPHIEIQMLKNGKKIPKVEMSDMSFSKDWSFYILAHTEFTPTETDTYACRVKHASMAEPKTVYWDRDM

N15 TCR
TdT positive cells per mm2 (TUNEL), FTOC N15tg #1, VSV8 (TdT positive cells / mm2) [1]: 429
TdT positive cells per mm2 (TUNEL), FTOC N15tg #2, VSV8 (TdT positive cells / mm2) [1]: 456
TdT positive cells per mm2 (TUNEL), FTOC N15tg #3, VSV8 (TdT positive cells / mm2) [1]: 441

N-(Z-Valinylalanyl)aspartic acid methyl ketone, b-methyl ester (peptide)
TdT positive cells per mm2 (TUNEL), FTOC N15tg #1, zVADmk + VSV8 (TdT positive cells / mm2) [2]: 360
TdT positive cells per mm2 (TUNEL), FTOC N15tg #2, zVADmk + VSV8 (TdT positive cells / mm2) [2]: 525
TdT positive cells per mm2 (TUNEL), FTOC N15tg #3, zVADmk + VSV8 (TdT positive cells / mm2) [2]: 461

N-benzyloxycarbonyl-Val-Ala-Asp(OMe)-fluoromethylketone (peptide)
molar excess over biotin-DEVDamk at which the ~17 kD band is no longer detectable [3]: 100 to 1000 fold
TdT positive cells per mm2 (TUNEL), FTOC N15tg #1, zVADfmk + VSV8 (TdT positive cells / mm2) [2]: 6
TdT positive cells per mm2 (TUNEL), FTOC N15tg #2, zVADfmk + VSV8 (TdT positive cells / mm2) [2]: 1
TdT positive cells per mm2 (TUNEL), FTOC N15tg #3, zVADfmk + VSV8 (TdT positive cells / mm2) [2]: 2

anti-CD3ε specific hamster anti-mouse mAb 145-2C11 (antibody)
percent DP thymocytes in C57BL/6 FTOC after 18 hours with 200 mg/ml 2C11 mAb (FACS) [4]: 37%
